Measured values published in patent US20230331848A1 (BIOSION, published 2023).
Residue numbers refer to the chain shown, from its start. Each block holds one binder with its values, some of them ahead of it.

Tests used:
[1] = molecular target: T1, in house made human PD-1-Fc protein (human, biotin-labeled (sites not given)); assay: competitive ELISA: antibody pre-mixed with biotin-labeled human PD-1-Fc, added to coated human PD-L1-Fc (blocked ligand); unit from the axis 'Con of mAb, nM.'
T1 construct: also called biotin-labeled human PD-1-Fc
Procedure: The activities of the anti-PD1 antibodies of the disclosure to block PD-L1-PD1 binding were measured in a competitive ELISA.
Briefly, 100 μl human PD-L1-Fc protein (prepared in-house with SEQ ID NO: 28) at 2 μg/mL in carbonate/bicarbonate buffer (pH 9.6) was coated on 96-well micro plates overnight at 4° C., Plates were washed with wash buffer (PBS+0.05% w/v Tween-20, PBST), and blocked with 5% w/v non-fatty milk in PBST for 2 hours at 37° C. […] After incubation at 37° C. for 40 minutes, plates were washed using wash buffer. […] Plates were washed again using wash buffer. Finally, TMB was added and the reaction was stopped using 1M H₂SO₄. The absorbance was read on a microplate reader using dual wavelength mode with 450 nm for TMB and 630 nm as the reference wavelength, then the OD (450-630) values were plotted against antibody concentrations. Data was analyzed using Graphpad Prism software and IC₅₀ values were reported.

[2] = molecular target: T2, cynomolgus PD-1-his protein (Cat#:PD1-05223, Acro biosystems Inc.) (cynomolgus, UniProt B0LAJ3 25-170); assay: indirect ELISA on coated cynomolgus PD-1-his; unit from the axis 'Con of mAb, nM.'
T2 construct: Bought protein used in Biacore and indirect ELISA; also called monkey PD-1; Cyno PD-1
Procedure: Briefly, 96-well micro plates were coated with 100 μl 2 μg/ml mouse PD-1-his (Cat#:50124-M08H, Sino Biological Inc) or 2 μg,/ml cynomolgus PD-1-his (Cat#:PD1-05223, Acro biosystems Inc.) in carbonate/bicarbonate buffer (pH 9.6) for 2 hours at 37° C. Plates were washed once with wash buffer (PBST, PBS+0.05% Tween-20) and then blocked with 200 μl blocking buffer (5% w/v non-fatty milk in PBST) for 2 hours at 37° C. […] ELISA plates were washed 4 times and incubated with Peroxidase AffiniPure goat anti-mouse IgG, Fcγ Fragment Specific (1:5000 dilution in PBST buffer, Cat#:115-035-071, Jackson ImmunoResearch Laboratories, Inc., 100 μl/well) or Peroxidase AffiniPure F(ab′)₂ Fragment Goat Anti-Human IgG, Fcγ fragment specific (Cat#:109-036-098, Jackson ImmunoResearch, for the controls) for 40 minutes at 37° C. After a final wash, plates were incubated with 100 μl/well TMB (Cat#:TMB-S-002, innoreagents) at room temperature. The reaction was stopped 3-10 minutes later with 50 μl/well 1M H₂SO₄, and the absorbance was read on a microplate reader using dual wavelength mode with 450 nm for TMB and 630 nm as the reference wavelength. Then the OD (450-630) values were plotted against antibody concentrations. Data was analyzed using GraphPad Prism software and EC₅₀ values were reported.

[3] = molecular target: T3, recombinant mouse PD-1-his protein (Cat#:50124-M08H, Sino Biological Inc) (mouse, UniProt Q02242 25-167); assay: SPR (Biacore T200), antibody captured, PD-1-his in flow, 1:1 fit
T3 construct: Bought protein used in Biacore and indirect ELISA; not shown: his tag
T3 sequence (looked up): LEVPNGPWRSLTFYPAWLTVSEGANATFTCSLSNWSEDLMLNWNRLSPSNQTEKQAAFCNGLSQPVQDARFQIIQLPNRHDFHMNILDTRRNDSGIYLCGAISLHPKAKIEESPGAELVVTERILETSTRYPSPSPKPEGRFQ
Excerpt: The purified anti-PD-1 mouse monoclonal antibodies (mAbs) generated in Example 1 were characterized for binding affinities and binding kinetics by Biacore T200 system (GE healthcare, Pittsburgh, Pa., USA).
Briefly, Goat-Anti-Mouse IgG (Cat#: BR100838, GE healthcare, Mouse Antibody Capture Kit) was covalently linked to a CMS chip (carboxy methyl dextran coated chip, Cat#: BR100530, GE healthcare) via primary amines using a standard amine coupling kit (GE healthcare, Pittsburgh, Pa., USA) provided by Biacore. Un-reacted moieties on the biosensor surface were blocked with ethanolamine. A Protein G chip (Cat#:29-1793-15, GE healthcare) was used for the positive controls affinity determination. The anti-PD-1 antibodies of the disclosure and the two positive controls at the concentration of 2 μg/ml were respectively flowed onto the chip at a flow rate of 10 μl/min. Then, serially diluted recombinant human PD-1-his protein (Cat#:10377-H08H, Sino biological Inc.), cynomolgus PD-1-his protein (Cat#:PD1-05223, Acro biosystems Inc.) and recombinant mouse PD-1-his protein (Cat#:50124-M08H, Sino Biological Inc), 2-fold dilution in HBS-EP⁺ buffer (provided by Biacore) starting at 200 nM, were respecitvely flowed onto the chip at a flow rate of 30 μl/min. The antigen-antibody association kinetics was followed for 2 minutes and the dissociation kinetics was followed for 10 minutes. The association and dissociation curves were fit to a 1:1 Langmuir binding model using Biacore evaluation software.

IC50 [1]: 0.45 nM
EC50 [2]: 0.121 nM
Kd [3]: 150 nM
koff [3]: 0.031 s⁻¹
kon [3]: 207000 M⁻¹ s⁻¹
B1: mouse anti-PD-1 monoclonal antibody E1A9C8A7 (antibody, V domains shown)
VH: QVQLQQSGAEVVRPGVSVRISCKGSGYTFSDYVMHWMKQSHGESLEWIGVISTYHIPAVYNQKFKGKATMTVDKSSSTVYLELARLTSEDSAIYYCAREVYGDSYYFDVWGAGTTVTVSS
VL: DVLMTQIPLSLPVSLGDQVSISCRSSQSIVHSNGNTYLEWYLQKPGQSPKLLIYKVSNRFSGVPDRFSGSGSGTDFTLKISRVEAEDLGVYYCFQGSHVPYTFGGGTKLEIK
notes: Hybridoma-derived mouse mAb purified on Protein A; also called Mouse E1A9C8A7

IC50 [1]: 0.428 nM
EC50 [2]: 0.166 nM
Kd [3]: 29.8 nM
koff [3]: 0.00553 s⁻¹
kon [3]: 186000 M⁻¹ s⁻¹
B2: mouse anti-PD-1 monoclonal antibody E2G4E10B7 (antibody, V domains shown)
VH: QVQLQQSGAELVRPGVSVKISCKGSGYTFTDYVMHWVRQSHAKSLEWIGVISTHFGDGVYNQKFKGKATMTVDKSSSTAYMELARLTSEDSAIYYCAREVYGDSWYFDVWGAGTTVTVSS
VL: B1 VL with I7T, V19A, I29L, N33D, V83L
notes: Hybridoma-derived mouse mAb; also called Mouse E2G4E10B7
